A short description of this series: yeast display, Sf9 membrane polyspecificity reagent, FACS + sequencing; frameworks hold sequencing errors. The gist of the method: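 Galactose induction of a Saccharomyces cerevisiae BJ5465 synthetic nanobody display library ran 36–48 hours. The cells were then stained for 1 hour at 4 °C with 10% biotinylated, detergent-solubilized Sf9 membrane reagent, pulled down on streptavidin microbeads and FACS-sorted into low and high (top ~1%) gates on expression and reagent-binding fluorescence. Labels for polyreactivity follow the gate of origin.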
With “QVQLVESGRGLVQAGGSLRLSCAASGSNFRAYAMGWSRQAPGKERELVAAISIGGRTYYADSVKGRFTISRDNAKNTVYLQMNSLKPEDTAVYYCAAVRSYVKGGMYYWGQGTQVTVSS”, the “polyreactivity (PSR sort gate)” value is on record as “low polyreactivity”.

Regarding “QFQLVDSGGALVQAGGSLRLSCAASGFTFYPYAMGWYRQAPGKERELVAAISKRGGSTYYADSVKGRFTISRDHAKNTVYLQMNSLNPEDTAVYYCIAFFNGELYYWGQGTQVTVSS”, the “polyreactivity (PSR sort gate)” value is on record as “high polyreactivity”.

As for “QVQLVESGGGLVQAGGSLRLSCAASGRIFSRYAMGWYRQAPGKERELVAVISRSGADTYYADSVKGRFTISRDNAKNTVYLQMNSLKPEDTAVYYCNAYSARRPHPMGYDYWGQGTQVTVSS”, the “polyreactivity (PSR sort gate)” value is “high polyreactivity”.

As to “QDQLVESGGGLVQAGGSLRLICAASGRTFITYSMGWYRQAPGKERELVAAISWNGGTTYYADSVKGRFTISRDNAKNTVYIQMNSLKPEVTAVYYCAGYRWYSAARMGYWGQGTQVTVSS”, the “polyreactivity (PSR sort gate)” value is “high polyreactivity”.

Consider “QVQLVESGGGLVQAGGSLRLSSAASGITFQAYPMGWYRQAPGKQRELVAAISNGGSTYYADSVKGRFTISRDNAKNTVYLEMNSLNPEDTAVYYCAAVSYYPARYGYWGQGTQVTVSS”, for which the “polyreactivity (PSR sort gate)” value is “high polyreactivity”.

Take “QVQLVESGGGLVQAGGSLRLSCAGSGHIFPYNAMGWYRQGPGKEREFVAAISFRGGSRYYADSEKGRFTISRDNAKNTVYLQMNSLKPEDTAVYYCAKRSYPWGQGTQVTVSS”: the “polyreactivity (PSR sort gate)” value is recorded as “low polyreactivity”.

On to “QVQLVESGGDLVQAGGSLRLSCAASGYTFIVKAMGWYRQAPGKERELVAGISYRGGRTFYADSVKGRFTISRDNAKNNVYLQMNSLKPEDTAVYYCAARKTGIPFYNYDYWGQGTQVTVSS”, for which the “polyreactivity (PSR sort gate)” value was “low polyreactivity”.

For the sequence “QVQLVVSGGGLVQAGGSLRLSCAASGLTFWKYTLGWYRQAPGKEREWVAAMSISGTNTYYADSVKGRFTISRDNAKNTVYLQMNSLKPEDTAVYYCAAVRGYPPTNYYYCGQGTQVTVSS”, the “polyreactivity (PSR sort gate)” value is on record as “high polyreactivity”.

Take “QVQLVESGGGLFQAGGSLRLSCAASGRTFDVYDMGWYRQAPGKERELVAAITWSGGSTYYADSVKGRFTISRDNAKNTVYLQMNSLKPEDTAVYYCAAGYYYFWTYDYWGQGTQVTVSS”: the “polyreactivity (PSR sort gate)” value is “low polyreactivity”.

As to “QVQLVESGGGLVQAGGSLRLSCAASGFIFSPNAMGWYRQAPGKEREFVAAIRYSGTSTSYADSVKGRFTISRDNAKNTVYLQMNSLKPEDTAVYYCNAQWRFSRGYTYNYWGQGTQVTVSS”, the “polyreactivity (PSR sort gate)” value is “high polyreactivity”.

On to “QVQLVESGGGLVQAGGSLRLSCAACGLTFGGYVMGWYRQAPGKVRELVAAISGSGGRTYYADSVKGRFTISRDNAKNTVYLQMNSLKPEDTAVYYCARPSRGPPRGYYWGKGTQVTVSS”, for which the “polyreactivity (PSR sort gate)” value is “high polyreactivity”.

For “QVQLVESGGGLVQAGGSLRLSCAASGRTFYGNVMGWYRQAPGKERELVAAISSRGSRTYYADSVKGRFTISRDNAKNTVYLQMNSLKPEETAVYYCNTYVRNHGLAGPDDYWGQGTLVTVSS”, the “polyreactivity (PSR sort gate)” value is recorded as “high polyreactivity”.

With “QVQLVESGGGLVQAGGSLRLSCAASGIMFTLYAMGWYRQAPGKERELVAAISGSGGSTYYAASVKGRFTISRDTAKKTVNLQMNSLKPEDTAVSYCRLAPRYRTGGYWGQGTQVTVSS”, the “polyreactivity (PSR sort gate)” value was “high polyreactivity”.

As to “QVQLVESGGGLVQAGGSLRLSCAASGSIFGSYAMGWYRQAPGKERELVASITRVDSTNYADSVKGRFTISRDNAKNTVYLQMNSLKPEDTAVYYCNAGSRTTAGGMDSWGQGTQVTVSS”, the “polyreactivity (PSR sort gate)” value was “low polyreactivity”.

With “QVQLVESGGGLVQAGGSLRLSCAASGRTFWPYAMGWYRQAPGKERELVARITASGGRTYYADSVKWRFTISRDNAKNTVYLQMNSLKPEDTAVYYCATSYSTRIWTWRAGDYWGQGSQVTVSS”, the “polyreactivity (PSR sort gate)” value is listed as “high polyreactivity”.

As to “QVQLVESGGGLVQAGGSLRLSCAASGSIFVGNAMGWSRQAPGKERELVAAISLSGGSTYFADSVKGRFTISRDNAKNTVYLQMNSLKPDDTAVYYCAAQTKPASRVTYYWYYYWGQGTQVTVSS”, the “polyreactivity (PSR sort gate)” value was “low polyreactivity”.

In the case of “QVQLVESGGGLVQAGRSIRLSCAASGRTFLGNSLGWYRQAPGKEMELVAAITRNGGGTYYPDSVKGRFTISRDNAKNTVYLQMNSLKPEDTAVYYCAALTSLFWRGGGLDYWGQGTQVTVSS”, the “polyreactivity (PSR sort gate)” value is given as “high polyreactivity”.

Consider “QVQLVESGGGLVQAGGSLRLSCAASGITFYGYAMGWYRQAPGKERELVAAISKSGGSTHYADSVKGRFTISRDNAKNTVYLQMNSLKPEDTAVYYCAAAYWTRLRRMDYWGQGTQVTVSS”, for which the “polyreactivity (PSR sort gate)” value was “low polyreactivity”.

As to “QVQLVESGGGLVQAGGSLRLSCAASGRILSSYAMGWNRQAPGKERELVAVISSGGNTYYADSVKGRFTISRDNAKNTVFLQMNSLKPEDTAVYYCNAARRGYLRRYYWGQGTQVNVSS”, the “polyreactivity (PSR sort gate)” value was “high polyreactivity”.

In the case of “QFQLVESGGGLVQAGGSLRLSCAASGSTLRLNVMGWYRQAPGKERELVARISRGCSTYYADSVKGRFTISRDNAKNTVYLQMNSLKPEDTAVYYCTAQSYPCVTPYSYWGQGTQVTVSS”, the “polyreactivity (PSR sort gate)” value is given as “low polyreactivity”.

Turning to “QVQLVESGGGLVQAGGSHRLSCAASGIIFPWYVMGWYRQAPGKERELVAAITQSGGSTFYADSLKGRFTISRDNAKNTVYLQMNCLKPEDTAVYYCHTEDFFKFPEMDSWGQGTQLTVSS”, the “polyreactivity (PSR sort gate)” value was “low polyreactivity”.

As to “QVQLVESGGGLVQAGGSLRLSCAASGRTFATYAMGWYRQAPGKEREFVAVIDGSGGSTYYADSVKGRFTISRDNAKNTVYLQMNSLKPEDTAVYYCAATSRRKVPNIRKSYGYWGQGTQVTVSS”, the “polyreactivity (PSR sort gate)” value is listed as “high polyreactivity”.

For the sequence “QVQLVESGGGLVQAGGSLRLSCAASGSTIFENVMGWYRQAPGKEREFVAAINTSGGSTYYADSVKGRFTISRDNAKNTVYLQMNILKPEDTAVYYCARDSYWELDYWGQGTQVTVSS”, the “polyreactivity (PSR sort gate)” value was “low polyreactivity”.

As for “QVQLVESGGGLVQAGGSLRLSCAASGITFHGYAMGWYRQAPGKERELVAAISDSGSSTYYADSVKGRFTISRDNAKNTVYLQMNSLKPEDTAVYYCAAVSGFYDQYDYWGQGTQVTVSS”, the “polyreactivity (PSR sort gate)” value is reported as “low polyreactivity”.

As for “QVQIVESGAGLVQAGGSLRLSCAPSGRIFVTNAMGWYRQSPGKERELGAAITSGGSTYYADSVKGRFTISRDNAKNNVYLQMNSLKPEDTAVFYCARPVFSQRYVTTRYDYWGQGTQVTVSS”, the “polyreactivity (PSR sort gate)” value is given as “low polyreactivity”.

On to “QVQLVESGGGLVHAGGSLRLSCAASGRIFKNYVMGWYRQAPGKERELVAGISSSGGSTYYADSVKGRFTISRYNAKNTVYLQMNSLKPEDTAVYYCAADYTFAYYNFKMDYWGQVTQVTVSS”, for which the “polyreactivity (PSR sort gate)” value is “low polyreactivity”.

As for “QVQLVESGGCLVQAGGSLRLSCAASGSIFPWYAMGWYRQAPGKERELVADISYSGSGTYYADSVKGRFAISRDNGKNNVYLQMTSLKPEDSAVYYCNAQRAEWYPVGRYEYWGQGSQVTVSS”, the “polyreactivity (PSR sort gate)” value is listed as “low polyreactivity”.

With “QVQLVESGGGLVQAGGSLRLSCAASGLIFAEYAMGWYRQAPGKERELVARITSGGSTDYADSVKGRFTISRDNAKNTVYLQMNRLKPEDTAVYYCSARYYSQDKNASTASDFDYWGQGTQVTVSS”, the “polyreactivity (PSR sort gate)” value was “low polyreactivity”.

Turning to “QVQLVESGGGLVQAGGSLRLSCAASGFIFSYYTMGWYRQEPGTERELVADISWSGGSSYYADSVKGRFTISRDNAKNTVYLQMNSLKPEDTAVYYCNAEGWTAFLDQYDYWGQGTQVTVSS”, the “polyreactivity (PSR sort gate)” value is given as “high polyreactivity”.

For “QVQLVESGGGLVQAGGSLRLSCAASGFTFTSNIMGWYRQATGKERELVADISASDGRTYYADSVKGRFTISRDNAMNTVYLQMNSLKPEDTAVYYCNVSSRRLRGLDYWGQGTQVTVSS”, the “polyreactivity (PSR sort gate)” value is “low polyreactivity”.

Regarding “QVQLVESGGGLVQAGGSLRLSCAASGRTFRYYAMGWYRQAPGKERELVADISWSGGRTSYADSVKGRFTISRDNAKNTVYLQMNSLKPEDTAVYYCAKVLYYPSHVYWGQGTQVTVSS”, the “polyreactivity (PSR sort gate)” value is “high polyreactivity”.

Regarding “QVQLVESGGGLVQAGGSLSLSCAASGTFYGNTMGWYRQAPGKERELVAVISIDGSTNYADSVKGRFTISRDNAKNTVYLQMNCLKPEDTAVYYCNARNQWRTVGKYDYWGQGTQVSVSS”, the “polyreactivity (PSR sort gate)” value is given as “low polyreactivity”.

“QVQLVESGGGLVQAGGSLRLSCAASGSTFFVYAMGWYRQSPGKERELVADITNSGGNTYYADSVKGRFTISRDNAKNTVFLQMISLKPEDTAVYYCSGEYWFTSYDSWGQGTQVTVSS”: the “polyreactivity (PSR sort gate)” value is reported as “high polyreactivity”.

Turning to “QVQLVESGGGLVQAGGSLRLSCAASGYTFKYYTMGWSRQAPGKERELVAAITGGGSTYYADSVKGRFTISRDNAKNTVYLQMNSLKPEDTAVYYCAATVLYGYHKAYDYWGQGTQVTVSS”, the “polyreactivity (PSR sort gate)” value is “high polyreactivity”.

Consider “QVQLVESGGGLVQAGGSLRLSCAASGRIVYIYAMGWYRQAPGKERELVAAISSGGTTNYADSVKGRFTISRDNAKNTVYLQMNSLKPEDTAVYYCAAYWRSRNRFYWGQGTQVTVSS”, for which the “polyreactivity (PSR sort gate)” value is on record as “high polyreactivity”.

Regarding “QVQLVESGGGLVQAGGSLRLSCAASGSTLNRYAMGWYRQAPGKERELVAAISISGGRTYYADSVKGRFTISRDNAKNTVYLQMNSLKPEDTAVYYCADGNYLYSYGYGYWGQGTQVTVSS”, the “polyreactivity (PSR sort gate)” value is reported as “high polyreactivity”.

With “QVQLVVSGGGLVQAGGSLRLSCAASGSTFSRNAMGWYRQAPGKERELVASISWSGARTYYADSVKRRFTISRDNAKNTVYLQMNSLKPEDTAVYYCAKFRSYRGPYNFWGQGTQVTVSS”, the “polyreactivity (PSR sort gate)” value is “high polyreactivity”.

For the sequence “QVQLVESGGGLVQAGGSLRLSCAASGSTFNVYAMGWYRQAPGKERELVASIRTSGTRTYYADSVKGRFTISRDNAKNTVYLQMNSLKPEDTAVYYCNARYYSNLRRHGGYWGQGTQVTVSS”, the “polyreactivity (PSR sort gate)” value is listed as “high polyreactivity”.

“QVQIEESGGGLVQAGGSLRLSCAASGRIFARNALGWYRQSPGTEREFVAAITHSGGNTYYADSVKGRFTISRDNAKNSVYLQMNSLKPEDTAVYYCAKDYRSTKYDYWGQGTQVTVSS”: the “polyreactivity (PSR sort gate)” value is given as “low polyreactivity”.

Regarding “QVQLVESGGGLGQAVGRLRLSCAASGSTFDPNTMGWYRQAPGKERELVATITSVDSTNYADSVKGRFTISRDNAKNTVYLQMNSLKPEDTAVSYCNAAYGGVFFYAYDYWGQGTQVTVSS”, the “polyreactivity (PSR sort gate)” value was “low polyreactivity”.

As to “QVQLVESGGGLVQAGGSLRLSCAASGRIFAYYAMGWYRQAPGKEREFLATITGRGGSTSYADSVKGRFTISRDNAKNTVYLQMNSLKPEDTAVYYCAKRVVVWYFGTGDYWVQGTQVTVSS”, the “polyreactivity (PSR sort gate)” value is reported as “low polyreactivity”.

Values taken from the nanobody polyreactivity screen of Harvey et al. (2022).
